From article PMC5395218, “Biochemical and structural investigations on phosphoribosylpyrophosphate synthetase from Mycobacterium smegmatis” (PLoS ONE, 2017)
Blank lines part the entries; values can stand above or below the molecule they belong to.

How the values were obtained:
[1] = target: T1, phosphoribosylpyrophosphate synthetase (MsPrsA) (Mycolicibacterium smegmatis, UniProt A0R3C8); assay: OPRT-coupled spectrophotometric assay, dose response on purified enzyme; format: biochemical
T1 construct: gene prs; recombinant MsPrsA, hexamer
T1 sequence (A0R3C8 1-326): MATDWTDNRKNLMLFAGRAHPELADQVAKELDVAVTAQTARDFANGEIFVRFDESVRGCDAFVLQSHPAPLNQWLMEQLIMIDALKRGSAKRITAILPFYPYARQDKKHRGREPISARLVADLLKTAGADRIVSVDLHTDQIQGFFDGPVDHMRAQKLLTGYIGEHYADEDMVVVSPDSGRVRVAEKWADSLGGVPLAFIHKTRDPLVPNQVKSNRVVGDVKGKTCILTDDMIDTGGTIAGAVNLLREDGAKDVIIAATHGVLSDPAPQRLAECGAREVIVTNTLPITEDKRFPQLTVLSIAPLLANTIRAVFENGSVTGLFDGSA

[2] = target: the molecule itself; assay: SEC; analytical gel filtration on Sephacryl S200HR 16/60, MsPrsA 1 mg/ml in Tris-HCl 20mM pH 8.0, NaCl 50mM; column calibrated with Blue Dextrane, catalase, aldolase, albumin, ovoalbumin; elution volume consistent with about 221 KDa
purified protein = substrate: Nc1ncnc2c1ncn2[C@@H]1O[C@H](COP(=O)(O)OP(=O)(O)OP(=O)(O)O)[C@@H](O)[C@H]1O; assay: purified protein; format: biochemical, Mycolicibacterium smegmatis; settings: Mg2+, inorganic phosphate

- IC50 [1]: 174 ± 46 µM
Molecule: Nc1ncnc2c1ncn2[C@@H]1O[C@H](COP(=O)(O)OP(=O)(O)O)[C@@H](O)[C@H]1O [ADP]

B1: Mycobacterium smegmatis phosphoribosylpyrophosphate synthetase (PrsA) (enzyme, M. smegmatis mc2155, UniProt A0R3C8 1-326, looked up)
chain: T1 sequence (A0R3C8 1-326)
notes: Phosphoribosylpyrophosphate synthetase (PrsA) of M. smegmatis mc2155; the crystal model holds Arg9-Gly316 without Arg204-Lys213; pCold I is recalled to add an N-terminal translation enhancing element, His6 and a Factor Xa site; also called MsPrsA; M. smegmatis PrsA
- stoichiometry N [2]: 6
- K0.5 (purified protein): 0.058 ± 0.005 mM
- Vmax (purified protein): 0.006 µmol/min
- kcat (purified protein): 83.5 ± 4.1 s⁻¹
- kcat/Km (purified protein): 1.44e+06 ± 53800 M⁻¹ s⁻¹
